Legend:
[1] = substrate: NC(=O)c1ccc[n+]([C@@H]2O[C@H](COP(=O)(O)OP(=O)(O)OC[C@H]3O[C@@H](n4cnc5c(N)ncnc54)[C@H](O)[C@@H]3O)[C@@H](O)[C@H]2O)c1; test: cells, lysate or membranes; details: 600 μM P5C/γGS (saturating), 0.01-2.5 mM NAD+, potassium phosphate pH 7.2, 28°C, crude homogenate, varied: cofactor
[2] = substrate: O=C(O)C1CCC=N1; test: cells, lysate or membranes; details: 1 mM NAD+ (saturating), 20-600 μM P5C/γGS, potassium phosphate pH 7.2, 28°C, racemic substrate in equilibrium with open form, crude homogenate

B1: TbP5CDH (Trypanosoma brucei brucei TREU927) (protein)
chain: PPAVNERMDSFQPGSDSARGTLEACKRLRCGATDCPIVIGGKEYRTDNAINRMIPSSHQQQVAKGYNATPELAQKAIDTALGAAKEWSQMPFKDRAAIFLHAAHLISTKYRHELRAATMLGQSKNPFQAEIDVIAESCDFLRFSVKYAEELYNQQPISPASGPVWNALDYRPLEGFVSVIAPFNFSAIAANLVACPALMGNVILWKPSPNAVLSNYLLYKVFEEAGLPAGVVNFMPCEPKVMTEVVNSHPELAGVAFTGSTNVFLSINKQIYSRLEEYRNIPRISGETGGKDFHLIHPTADMKMTAALTVRGAFEYQGQKCSATSRIYVPQSRWEELKGYLLELHGKLKMGQPDDFQSFMCAVIDETAFDRNKKYIDIAKADSSAYTIIAGGGCDKSEGWFIQPTIIVAKDPNAQLLREEIFGPILTVHVYDDSKPDFWSEACNLVNNATKYALTGSIFAQDRKAIRDATEKHLRYAAGNYYINDKCTGAVVGQQPFGGARASGSNDKPGSALFLTRWVSARTIKENFDHSAQVSYPHQLPDYVTL
Km [1]: 380 ± 40 µM | Km [2]: 92.7 ± 14 µM
